Here are results for two molecules from patent US20210139554A1 (published 2021).

Usually Kd stands for the concentration at which binding is half-saturated.

Assay [1] deals with T1, cynomolgus monkey IL-2 (cynomolgus monkey, UniProt Q29615 21-154, limits assumed).
T1 construct: also called cyno IL-2
The experiment in a line: BIACORE. Background: Surface plasmon resonance follows binding to a sensor surface in real time, without labels.

The target of assay [2] is T2, wild-type human IL-2 (human, UniProt P60568 21-153).
T2 construct: The construct used in ELISA and BIACORE is not described; also called hIL-2; WT IL-2
Kind of assay: BIACORE.

T2 sequence (P60568 21-153 limits assumed): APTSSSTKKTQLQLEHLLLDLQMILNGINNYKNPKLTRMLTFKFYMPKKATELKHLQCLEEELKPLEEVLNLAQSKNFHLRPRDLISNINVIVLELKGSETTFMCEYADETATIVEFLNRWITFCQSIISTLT
T1 sequence (Q29615 21-154 limits assumed): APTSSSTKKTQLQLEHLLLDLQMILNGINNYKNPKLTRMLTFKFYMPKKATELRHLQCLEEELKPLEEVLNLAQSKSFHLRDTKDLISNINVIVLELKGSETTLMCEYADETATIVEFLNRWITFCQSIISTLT

B1: 2C3 (antibody, V domains shown)
VH: EVQLVQSGAEVKKPGESLKISCKGSGYRFTSYWIGWVRQMPGKGLEWMGIIYPGDSDTRYSPSFQGQVTISADKSISAAYLQWSSLKASDTAMYYCARQQVAGMLDYWGQGTLVTVSS
VL: EIVLTQSPGTLSLSPGERATLSCRASQSFSSSYLVWYQQKPGQAPRLLIYGASSRATGIPDRFGGSGSGTDFTLTISRLEPEDFAVYYCQQYGSSPLTFGGGTKVEIK
In assay [1], B1 had a Kd of approximately 1.2 nM.

B2: 26H7 (antibody, V domains shown)
VH: EVQLVQSGAEVKKPGESLKISCKGSGYRFTNYWIGWVRQMPGKGLEWMGIIYPGDSDTKYSPSFQGQVTISADKSISTAYLQWSSLKASDTAMYYCARHGGYSGRSYYYGMDVWGQGTAVTVSS
VL: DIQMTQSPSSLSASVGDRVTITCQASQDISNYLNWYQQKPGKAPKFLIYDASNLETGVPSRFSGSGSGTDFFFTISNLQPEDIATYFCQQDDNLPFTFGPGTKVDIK
Regarding B2, the Kd in assay [2] is approximately 1.3 nM.
